Measured values taken from the nanobody polyreactivity screen of Harvey et al. (2022).

Test: yeast display, Sf9 membrane polyspecificity reagent, FACS + sequencing; frameworks hold sequencing errors
In short: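 Galactose induction of a Saccharomyces cerevisiae BJ5465 synthetic nanobody display library ran 36–48 hours. The cells were then stained for 1 hour at 4 °C with 10% biotinylated, detergent-solubilized Sf9 membrane reagent, pulled down on streptavidin microbeads and FACS-sorted into low and high (top ~1%) gates on expression and reagent-binding fluorescence. Labels for polyreactivity follow the gate of origin.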

| Sequence | polyreactivity (PSR sort gate) |
| --- | --- |
| QVQLVESGGGLVQAGGSLRLSCAASGNTFTKYAMGWYRQAPGKERELVAGITRGGSTNYADSVKGRFTISRDNAKNTVYLQMNSLKPEDTAVYYCNARPVYGSRFYSAVRMEYWGQGTQVNVSS | low polyreactivity |
| QVQLVESGGGLVQAGGSLRLSCAASGNTFVPYAMGWYRQAPGKEREFVAAISSTSGSTYYADSVKGRFTISRDNAKNTVYLQMNSLTPEDTAVYYCAAANHKCSRMDYWGQGTQVTVSS | high polyreactivity |
| QVQLVESGGGLVQAGGSLRLSCAASGNTFVPYVMGWYRQAPGKERELVAAISRRGGSTRYADSVKGRFTISRDNAKNTVYLQMNSLNPEDTAVYYCAADGYVFALQRSRGVDFGYEYWGQGTQVTVSS | high polyreactivity |
| QVQLVESGGGLVQAGGSLRLSCAASGNTFVQNDMGWYRQAPGKEREFVAAITWIGGSTRYADSVKGRFTISRDNAKNTVYLQMNSLKPEDTAVYYCAVKPVGWPRYRVDYWGQGTQVTVSS | high polyreactivity |
| QVQLVESGGGLVQAGGSLRLSCAASGNTFVQNTMGWYRPATGKETELVAAISTRGGSTYYADSLKGRFTISRDNAKNTVYLQMNSLKPVDTAVYYCAARSKVRRSYDYWGQGTQVTVSS | high polyreactivity |
| QVQLVESGGGLVQAGGSLRLSCAASGNTFVTKAMGWYRQAPGKERELVAAINSSGGSTYYADSVKGRFTISRDNAKNTVYLQMNSLKPEDTAVYYCAADPLGITSGYGYWGQGTQVTVSS | low polyreactivity |
| QVQLVESGGGLVQAGGSLRLSCAASGNTFVTYTMGWYRQAPGKERELVADISSGGSTYYADSVKGRFTISRDNAKNTVYLQMNSLKPEDTAVYYCAVQQAVFRSYYIYHRYYWGQGTQVTVSS | high polyreactivity |
| QVQLVESGGGLVQAGGSLRLSCAASGNTFVYNDMGWYRQAPGKERELVADIRYSGSTYYADSVKGRFTISRDNAKNTVYLQMNSLKPEDTAVYYCAVDSYYFLKDPISYGLYYYWGQGSQVTVSS | low polyreactivity |
| QVQLVESGGGLVQAGGSLRLSCAASGNTFWGNAMGWYIQAPGKERELVAAITSGGNTNYADSVKGRFTISRDNAKNTVYLQMNSLKPEDTAVYYCNVDLKAWLPDGGSVDYWGQGTQVTVSS | low polyreactivity |
| QVQLVESGGGLVQAGGSLRLSCAASGNTFYGYAMGWYRQAPGKERELVASITLSGDSTYYADSVKGRFTISRDNAKKTVYLQMNSLKPEDTAVYYCAGVYTYPLGYYHYTYDYWGQGTQVTVSS | low polyreactivity |
| QVQLVESGGGLVQAGGSLRLSCAASGNTFYGYAMGWYRQAPGKERELVASITLSGDSTYYADSVKGRFTISRDNAKNTVYLQMNSLKPEDTAVYSCAGVYTYPLGYYHYTYDYWGQGTQVTVSS | low polyreactivity |
| QVQLVESGGGLVQAGGSLRLSCAASGNTFYHYAMGWYRQAPGKERELVAAITWTGDSTYYADSVKGRFTISRDNAKNTVYLQMNSLKPEDTAVYYCNRVGYQSMNYWGQGTQVTVSS | low polyreactivity |
| QVQLVESGGGLVQAGGSLRLSCAASGNTFYQYAMGWYRQAPGKERELVAAIDWSGGSTYADSVKGRFTISRDNAKNTVYLQMNSLKPEDTAVYYCNASVKPSNVWSRGYDYWGQGTQVTVSS | low polyreactivity |
| QVQLVESGGGLVQAGGSLRLSCAASGNTFYQYAMGWYRQAPGTERELVAAISSSGGSTYYADSVKGRFTISRDNAKKTVYLQMNSLKPEDTAVYYCATDKSYGYYYWGQGTQVTVSS | low polyreactivity |
| QVQLVESGGGLVQAGGSLRLSCAASGNTFYRYAMGWYRQAPGKEREFVAGITSRGGSTSYADSVKGRFTISRDNAKNTVYLQMNSLKPEDTAVYYCAKKYFRPLRSYDYWGQGTQVTVSS | high polyreactivity |
| QVQLVESGGGLVQAGGSLRLSCAASGNTFYSNAMRWYRQAPGKERELVAAISTSGGSTFYADSVKGRFTISRDNAKNTVYLQMNSLKPEDTAVYYCAARSLRGHRYRYDYWGQGTQVTVSS | high polyreactivity |
| QVQLVESGGGLVQAGGSLRLSCAASGNTFYSYAMGWYRQAPGKERELVAAITWGGRTKYADSVKGRFTISRDNAKNTVYLQMNSLKPEDTAVDYCAARLYHGKTKYDYWGQGTQVTVSS | high polyreactivity |
